Results as given in patent US20130330346A1 (Novartis, published 2013).
Ends that are not written are not given here.

How the values were obtained:
Human 1to19 peptide = target: T1, Human 1to19 peptide (human); test: ELISA, periplasmic extract on biotinylated peptide
T1 construct: First 19 N-terminal amino acids of human CXCR2, captured on neutravidin; also called human CXCR2 1 to19 peptide; 1-19 Nter peptide
T1 peptide: MEDFNMESDSFEDFWKGED-biotin
Protocol: In another setup, periplasmic extracts were analyzed for binding to human 1 to 19 peptide by ELISA. MaxiSorb plates (Nunc, 430341) were coated for two hours with neutravidin followed by one hour blocking (PBS, 1% casein). Then 100 nM biotinylated human 1 to 19 peptide was added to these plates for one hour (PBS, 0.1% casein, 0.05% tween20) followed by one hour incubation with 10-fold dilutions of periplasmic extracts. Unbound periplasmic extracts were washed away (PBS supplemented with 0.05% tween20) and bound Nanobodies were detected using mouse anti-myc (Roche, 11667149001) followed by rabbit anti-mouse-HRP conjugate (Dakocytomation, P0260). Table 8 summarizes the ratios of the binding signals of anti-CXCR2Nanobodies over an irrelevant control Nanobody.

Human CXCR2 [1] = target: T2, Human CXCR2 (human, UniProt P25025 1-360); test: FACS competition vs 3 nM FMAT-Blue Gro-α
T2 construct: Some cell lines carry an N-terminal 3xHA tag; also called hCXCR2; huCXCR2
T2 sequence: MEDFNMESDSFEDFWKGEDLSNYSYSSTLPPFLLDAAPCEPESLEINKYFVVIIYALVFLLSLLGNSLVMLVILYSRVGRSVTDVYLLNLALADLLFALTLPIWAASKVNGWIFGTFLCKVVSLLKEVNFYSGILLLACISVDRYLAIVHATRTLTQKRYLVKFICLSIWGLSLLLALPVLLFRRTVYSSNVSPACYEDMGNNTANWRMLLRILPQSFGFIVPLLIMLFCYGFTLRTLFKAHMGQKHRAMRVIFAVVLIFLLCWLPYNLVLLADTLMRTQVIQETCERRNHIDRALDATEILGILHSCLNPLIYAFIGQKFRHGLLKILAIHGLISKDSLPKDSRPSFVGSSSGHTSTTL
Protocol: Purified monovalent anti-CXCR2Nanobodies were titrated against 3 nM FMAT-Blue-labeled Gro-α in the FACS ligand competition assay on human and cynomolgus CXCR2 (Table 10). On human CXCR2, blocking potencies range between double digit nM and sub-nM whereas on cynomolgus CXCR2, they range between single and double digit nM.

Human CXCR2 [2] = target: T2, Human CXCR2; test: cell-based or functional assay
Human CXCR2 [3] = target: T2, Human CXCR2; test: FACS, periplasmic extract vs FMAT Blue Gro-α
Protocol: Periplasmic extracts (as described above) were analyzed on FACS for competition with Gro-α in binding to human CXCR2. 2×10⁵ cells were incubated with a ½ dilution of periplasmic extracts in FACS buffer (PBS+10% fetal bovine serum (Sigma, F7524)) for 30 minutes at 4° C. Then, an equal volume of 6 nM of FMAT Blue-labeled human Gro-α in FACS buffer was added and incubation was continued for another 30 minutes at 4° C. in the dark. Cells were then washed three times in FACS buffer and finally resuspended in FACS buffer. Dead cells were stained with propidium iodide (Sigma, P4170). Samples were then analyzed on a FACSarray (BD Biosciences).

Row | Binder | ratio of binding signal relative to blank control (Human 1to19 peptide) | % inhibition of max (Human CXCR2 [1]) | IC50 (Human CXCR2 [1]) | FLIPR % inhibition max (Human CXCR2 [2]) | FLIPR IC50 (GRO-α induced calcium release) (Human CXCR2 [2]) | FACS Gro-α competition (% inhibition) (Human CXCR2 [3])
1 | 137B7 (VHH, Tested as periplasmic extract (pAX50) and as purified His6-tagged protein (pAX100); also called 137B07; not shown: C-terminal c-myc tag and His6 tag coded by the vector) VHH: EVQLVESGGGLVQPGGSVRLSCVASGIIFRLSALGWTRQGPGKAREWVAGINSDGTTNYADPVKGRFTISRDNAKNTIYLHMDMLKPEDTAVYYCASGKYRGQGTQVTVSS | 1 ratio | 93.5% | 1.11 nM | 100% | 6.71 nM | 90.3%
2 | 139D5 (VHH, Tested as periplasmic extract only; also called 139D05; not shown: C-terminal c-myc tag and His6 tag coded by the vector) VHH: EVKLVESGGGLVQAGGSLRLSCALSGRIGSINAMGWYRQVSGQQRELVAVSRSGGSTDIADSVKGRFTISRDNGKNTVYLQMDSLKPEDTAVYYCYAHTSSYSNWRVYNNDYWGQGTQVTVSS | 0.8 ratio |  |  |  |  | 56.8%
3 | 139H2 (VHH, Tested as periplasmic extract only; also called 139H02; not shown: C-terminal c-myc tag and His6 tag coded by the vector) VHH: EVQLVESGGGLVQAGGSLRLSCAASGRTFSNYAMGWFRQATGKEREFVAAINKSGGNTHYAGSVKGRFTISRDNAKNTVYLQMNSLKPRDTAVYYCAASRTNPKPDYWGQGTQVTVSS | 1.7 ratio |  |  |  |  | 50.5%
4 | 159B10 (VHH, Tested as periplasmic extract only; not shown: C-terminal c-myc tag and His6 tag coded by the vector) VHH: EVQLVESGGGLVQPGGSLRLSCAASGRTFSSLSMGWFRQAPGKERAFVAALTRNGGYRYYADSVKGRFTISRDVAKKTLYLQMNSLKPEDTAVYYCAADSLSGSDYLGTNLDYWGQGTQVTVSS | 0.8 ratio |  |  |  |  | 75.8%
5 | 137A8 (VHH, Tested as periplasmic extract only; also called 137A08; not shown: C-terminal c-myc tag and His6 tag coded by the vector) VHH: EVQLVESGGGLVQPGGSLRLSCAASGSTLAYYTVGWFRRAPGKEREGISCISSSDGSTYYADSVKGRFTISRDNAKNTVYLQMNSLKPEDTAVYYCAADRRTDCKKGRVGSGSWGQGTQVTVSS | 1.2 ratio |  |  |  |  | 55.8%
6 | 139A8 (VHH, Tested as periplasmic extract only; also called 139A08; not shown: C-terminal c-myc tag and His6 tag coded by the vector) VHH: EVQLVESGGGLVQAGGSLRLSCAASGRSFSRSAMGWLRQAPGKEREFVAGISWGGDNSYYADSVKGRFTISRDNAKNTVSLQMNSLKPQDTAVYYCAARYRGGAAVAGWEYWGQGTQVTVSS | 1 ratio |  |  |  |  | 78.5%
7 | 126B11 (VHH, Tested as periplasmic extract only; not shown: C-terminal c-myc tag and His6 tag coded by the vector) VHH: EVQLVESGGGLVQAGGSLTLSCAVSGSSFRINTMGWYRRAPGKQRELVAARDRGGYINYVDSVKGRFTVSRDNAKPTMYLQMNSLKPEDTAVYYCHAGTQDRTGRNFDHWGQGTQVTVSS |  |  |  |  |  | 36.9%
